Test results reported in article PMC9487866 (Immunity, 2022).

Biological target: Pfs48/45-6C wild type (Plasmodium falciparum 3D7, UniProt Q8I6T1)
Assay: BLI
Details: both partners purified

Chain of Pfs48/45-6C wild type (Q8I6T1 291-428): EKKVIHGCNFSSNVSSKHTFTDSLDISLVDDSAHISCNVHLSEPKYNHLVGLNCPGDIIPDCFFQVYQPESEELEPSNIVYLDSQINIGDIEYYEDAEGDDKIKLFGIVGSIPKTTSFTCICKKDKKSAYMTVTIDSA

B1: TB31F Fab (Fab, V domains shown)
VH: EVQLVQSGGGLVQPGGSLRLSCAASGFTFNNYWMSWVRQAPGKGLEWVSSISNIGGTIYYPDSVKGRFTISRDNSKNTLYLQMNSLRAEDTAVYYCTRDLRMSDYFDYWGQGTMVTVSS
VL: NFMLTQPHSVSESPGKTVTISCTRSTGNIGSNYVSWYQQRPGSSPTTVIYRDDQRPSGVPDRFSGSIDRSSNSASLTISGLKTEDEADYYCHSYSTGMYIFGGGTKLTVL
Kd: 3.1 nM
